Experimental data taken from publication PMC6363440 (The Journal of Cell Biology, 2019).

Molecular target: Flag-53BP1 (human, UniProt Q12888 1-1972)
Assay: pull-down

Flag-53BP1, sequence (Q12888 whole entry): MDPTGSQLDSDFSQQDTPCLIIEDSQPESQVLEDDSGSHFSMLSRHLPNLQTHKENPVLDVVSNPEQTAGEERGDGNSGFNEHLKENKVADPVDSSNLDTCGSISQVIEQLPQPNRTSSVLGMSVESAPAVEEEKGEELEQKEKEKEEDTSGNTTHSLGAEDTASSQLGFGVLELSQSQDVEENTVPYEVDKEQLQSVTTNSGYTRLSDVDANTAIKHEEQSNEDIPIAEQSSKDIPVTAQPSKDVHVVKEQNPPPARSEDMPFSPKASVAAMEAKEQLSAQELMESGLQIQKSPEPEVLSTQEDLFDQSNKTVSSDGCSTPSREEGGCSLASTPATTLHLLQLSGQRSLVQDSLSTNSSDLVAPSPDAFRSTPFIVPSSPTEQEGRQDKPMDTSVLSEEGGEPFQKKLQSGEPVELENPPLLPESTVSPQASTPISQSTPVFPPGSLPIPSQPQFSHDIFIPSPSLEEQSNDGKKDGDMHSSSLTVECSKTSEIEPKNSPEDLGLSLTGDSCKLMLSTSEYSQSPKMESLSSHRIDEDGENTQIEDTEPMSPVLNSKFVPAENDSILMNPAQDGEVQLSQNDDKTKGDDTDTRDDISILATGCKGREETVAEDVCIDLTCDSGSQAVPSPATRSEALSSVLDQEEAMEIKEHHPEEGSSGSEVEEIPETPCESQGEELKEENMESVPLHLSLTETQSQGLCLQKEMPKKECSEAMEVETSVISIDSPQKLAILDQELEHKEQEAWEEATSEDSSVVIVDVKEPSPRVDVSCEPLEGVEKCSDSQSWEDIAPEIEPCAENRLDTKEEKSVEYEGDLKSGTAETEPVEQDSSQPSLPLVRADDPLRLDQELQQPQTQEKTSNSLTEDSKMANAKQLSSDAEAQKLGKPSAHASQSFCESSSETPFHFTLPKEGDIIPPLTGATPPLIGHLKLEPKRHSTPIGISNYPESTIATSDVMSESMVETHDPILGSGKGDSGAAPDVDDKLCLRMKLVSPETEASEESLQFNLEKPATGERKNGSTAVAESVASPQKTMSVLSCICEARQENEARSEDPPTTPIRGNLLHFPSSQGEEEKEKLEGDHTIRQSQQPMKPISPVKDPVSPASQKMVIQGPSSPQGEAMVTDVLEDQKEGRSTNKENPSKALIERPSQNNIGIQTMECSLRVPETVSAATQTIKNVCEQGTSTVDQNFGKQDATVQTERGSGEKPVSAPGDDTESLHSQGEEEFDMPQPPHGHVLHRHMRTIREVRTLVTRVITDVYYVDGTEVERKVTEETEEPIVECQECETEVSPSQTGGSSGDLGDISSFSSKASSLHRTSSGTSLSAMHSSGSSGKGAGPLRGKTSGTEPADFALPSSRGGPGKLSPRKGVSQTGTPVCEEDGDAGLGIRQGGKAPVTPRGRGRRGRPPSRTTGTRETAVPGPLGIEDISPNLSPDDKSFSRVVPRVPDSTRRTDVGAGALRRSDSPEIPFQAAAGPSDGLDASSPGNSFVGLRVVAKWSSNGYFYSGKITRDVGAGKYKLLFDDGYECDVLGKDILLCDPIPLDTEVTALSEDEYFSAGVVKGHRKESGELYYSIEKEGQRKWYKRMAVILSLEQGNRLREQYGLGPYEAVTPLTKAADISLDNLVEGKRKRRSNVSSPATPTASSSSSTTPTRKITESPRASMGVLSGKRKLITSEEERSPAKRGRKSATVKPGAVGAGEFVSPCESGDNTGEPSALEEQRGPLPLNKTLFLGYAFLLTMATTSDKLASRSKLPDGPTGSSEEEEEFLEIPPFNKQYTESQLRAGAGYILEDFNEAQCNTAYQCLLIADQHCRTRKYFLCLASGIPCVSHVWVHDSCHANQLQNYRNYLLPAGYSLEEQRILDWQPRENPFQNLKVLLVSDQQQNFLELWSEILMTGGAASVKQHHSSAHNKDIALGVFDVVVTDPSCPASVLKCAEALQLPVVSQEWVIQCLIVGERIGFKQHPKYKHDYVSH

binding result: binds
B1: GST-TPX2 (natural protein)
chain: MSQVKSSYSYDAPSDFINFSSLDDEGDTQNIDSWFEEKANLENKLLGKNGTGGLFQGKTPLRKANLQQAIVTPLKPVDNTYYKEAEKENLVEQSIPSNACSSLEVEAAISRKTPAQPQRRSLRLSAQKDLEQKEKHHVKMKAKRCATPVIIDEILPSKKMKVSNNKKKPEEEGSAHQDTAEKNASSPEKAKGRHTVPCMPPAKQKFLKSTEEQELEKSMKMQQEVVEMRKKNEEFKKLALAGIGQPVKKSVSQVTKSVDFHFRTDERIKQHPKNQEEYKEVNFTSELRKHPSSPARVTKGCTIVKPFNLSQGKKRTFDETVSTYVPLAQQVEDFHKRTPNRYHLRSKKDDINLLPSKSSVTKICRDPQTPVLQTKHRARAVTCKSTAELEAEELEKLQQYKFKARELDPRILEGGPILPKKPPVKPPTEPIGFDLEIEKRIQERESKKKTEDEHFEFHSRPCPTKILEDVVGVPEKKVLPITVPKSPAFALKNRIRMPTKEDEEEDEPVVIKAQPVPHYGVPFKPQIPEARTVEICPFSFDSRDKERQLQKEKKIKELQKGEVPKFKALPLPHFDTINLPEKKVKNVTQIEPFCLETDRRGALKAQTWKHQLEEELRQQKEAACFKARPNTVISQEPFVPKKEKKSVAEGLSGSLVQEPFQLATEKRAKERQELEKRMAEVEAQKAQQLEEARLQEEEQKKEELARLRRELVHKANPIRKYQGLEIKSSDQPLTVPVSPKFSTRFHC
